Bounds are passed on as bounds.

The series is described as follows: soluble fraction after stress (log2 fold change); higher = more stays soluble; pooled small domains, quantitative proteomics. The settings on record: stress: pH 4. Summed up:
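High-throughput quantitative proteomics was run on pooled custom libraries of small protein domains following pH 4 stress. Fold changes are on a log2 scale; higher values mean more of a domain remained soluble. The fold change in soluble amount is taken as a measure of aggregation propensity.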
For the sequence “HMTGAEGKLARYLLTVPSGEPLRLSATDLAKRLGISRASLYRAFQALEDARLIRREGKSMYVLDPAGLEGV”, the “soluble fraction (log2)” value was at least 0.43. For “HMTGENWAERSRQLAAAGLLVLGKEAQEKIASLPNLIPLIEAAAASDTRLLNAQTIDELLSFVPTEETI”, the “soluble fraction (log2)” value was -0.98. As for “HMTGESVPAPLSGTIFKILVAPGEQVEEGQTVIILEAMKMETEISAPRSGVVGAINIKEGDSVQVGQSLFT”, the “soluble fraction (log2)” value came to 0.104. With “HMTGIKISVDRLQIGNYVKLPLNWKDHPFLFSSFAIKSQEEIDLIRRLGLKQVIMFPDKSSMPPKPV” the figure was -0.0359. Take “HMTGLSNFEFNQIKLDLMHELTQTPLRLTDLVNRITSFENEKTITVIRFLVDEGILLLKDDTLSVAKID”: the “soluble fraction (log2)” value is -1.47. For the sequence “HMTGMEAAEFGKRIMKLRKQKGMTQSKLAEQINVSNKAISRWETGEGFPEITLLKPLAKALGTTVDELFGE”, the “soluble fraction (log2)” value is -0.271.

With “HMTGMEKFLTIPSIRESTAAFEREYLIHYLDENAWQVSKTAAAIGIERTTLYKKMKQLGIVPIEE”, the “soluble fraction (log2)” value is -0.166.

On to “HMTGNWRQMHKVKSKETIYGIAKEYGITVDELTKANPGMEAPGYTLKKGDYIFIPYATADANV”, for which the “soluble fraction (log2)” value turned out to be 0.0315. The figure for “HMTGQEGLIGAHGVALTRLSNEEGEVKVQGEIWQARSDQEVAKGASIEVVHVDGLVLTVRPQH” is 0.175; for “HMTGQLTEEELKQRQERAMSNPEIQGILSDPVMRQVLQDMSTDPKAAAEHQRNPTIMAKIQKLINAGIVQV” it is -0.0717. For the sequence “HMTGSETLQDIFAHLEAGTVRTALSLIPRLDAVEYEQNRQRIAELAGVRPSALDDLRKQAKREEN”, the “soluble fraction (log2)” value is -0.434. “HMTGTKEQQVVMLNNILQKQLQAFELQGKRDYPMVTMKNMYNTLSKMVENAGLQTVESYFVDPIKGQQM”: the “soluble fraction (log2)” value is -0.266. With “HMTGVEAIERYLASGVIPGVGPVLAKRLVERFGARTLEVIEDSPRRLTQVPGIGRQKARQIHQALKAQRE” the figure was 0.0508; with “HMTGYVMIRVDGLSLEKFLNMAAEAGVRVSDVRRASYTVLYAVVSPRDLKKLQSVAPEKYTVTVR”, -0.23; with “HMTHANAALTPRHRLKVARLVVDEGWPVSEVAARFQVSWPTVKRWADRYRAGQSMQDRSSRP”, 0.228.

As to “HMTHEAEDLNALRMMVRDPIFSSDEPDLQQLRGAVAHAPQFVDRFKELYNDYQRLAEFVQNSL”, the “soluble fraction (log2)” value was -1. As to “HMTHFRTDERRREILSTIEADGRVSVSEIASRFDVSPVTIRSDLNYLAIQGKLKRVRGGAVLLDH”, the “soluble fraction (log2)” value is 0.275.

Consider “HMTIDNPESQKIMDMVPFFFQSRNYDEAIEALTYVIEQEPQFSEAYNKRATFYFMMGDLENSMKDIEITLA”, for which the “soluble fraction (log2)” value is -0.568. With “HMTIGIGKSLDFNTSGEKAYRIYNFKGAYVGTFKASDMTSLKNEVQKSNVKAGAYMVRSLDGHVNRLIEIK” the figure was at least 0.43.

With “HMTIGKIVNIIEGSYANVRSAPDQNSEPIGRAYPGDAFLVDPLGSSGDWVKVTYEGQSGFIFQAYISV”, the “soluble fraction (log2)” value is -1.28. The figure for “HMTIGKRIKRRRIELKMSIDSLARTIGKDRSTVYRYESGAIDKVSSDVLAKLATALNTTPAYLIGL” is 0.22; for “HMTIKNHIDEILKKEPFILENIKNGLINISALARQIEPQLSRKVGKKLNVNAIIMTIKRMEIDQLNK” it is 0.0888. Take “HMTIPNGTVVNGTVLEAREAGAYLVRVAGQTLTAQANLPLLVGQHFRAVWDSSGDIPVLRLSDAEQALLGK”: the “soluble fraction (log2)” value is -0.121. With “HMTIPRLPFAFAKRFGIVLDNRPSGFVAAHKEGLLPHVLLEVQRFLGDAYTLEVVSDDDFERILGQVYQT” the figure was -2.03; with “HMTIPSYAEAVRYVRRQPRINTSTLADGLGIRWSLALDYLERMARSGVVGAIEDDGWWPVAR”, 0.329.

Take “HMTIRIPEEEYLTRAKRAAQMTAERGLDALFLFGSEGDFQNVRYFTSVTPIWERLGVVITASGKAAMLTGP”: the “soluble fraction (log2)” value was -0.0548. With “HMTIRPEDVELVPAEDGYMQGDVVSNIFKGVHYELEVKANGYDWMVHTTKYVEVGSHVGIKVIPFNIQV” the figure was 0.22; with “HMTISPYTKDDFLKGTKPFEDVYAHKADPFVHDRALEQMTIWAKSVGVNGFKKLYKAYIDSLRIKNKEI”, 0.00637. With “HMTKAGVDAWTRGDYAAAVKEWQAQAAKGDADAIFNLGQAFKLGKGVPQDLIKAEQLFGQAAA” the figure was -0.466; with “HMTKDEIIIQSIIDAAKKLMQQYGLNKTTMEDIAKEAGKGKSTLYHYFKSKEEIFDQVINQEID”, -1.06. In the case of “HMTKEEFLDEIKKELGFMPYEEVIKAEKYFESYFNGSEADEKVIERFGSPKYAAQNYYRTHVAN”, the “soluble fraction (log2)” value worked out at 0.0371. Regarding “HMTKEEFLYELKKELSALDSAEATAYNLRYYSDYIDAEIAKGRSEQEVLDELGNPRWLVNSIKESG”, the “soluble fraction (log2)” value was -0.521. The figure for “HMTKGDRIKARREELGLTQTDLAEAISSTKQNIYKYENNIISNIPSDKVEAIAEVLKISPAYLMGWGDE” is -0.594. The figure for “HMTKGFSIQDISLSKSTMTFLQQNKITDLASLLSMSKSQIEGMKGFKPKMIQEIEKNLDKVGLVLAQD” is -0.228; for “HMTKGVKVEIGTEEASVDLYVVMEYGTPIQKAAYDAQESVRKAIETMTNLHVVRVDVHVQGVSF” it is at least 0.43. With “HMTKGVWHTVKKGENLYRISLYYEVPQQEIKKANKIETENIVVGQKLFIPNTTKKSPIFALTP” the figure was -0.0478; with “HMTKIDYSINQIYSLRNIENITIVLKDKRSFTGKILKIYWQNGSKIILFTTETRNYKFKEYEISEIYKS”, -0.706; with “HMTKIEYTEQEFNDFIQAYKNNRKMFPEDYIVKTQVVFINKGFSKSQADMIIAQIETRLRLQGE”, -0.378. Turning to “HMTKIKAIFFDIDGTIRSFKTKTIPENTANTLKKLKEQGIKIFIATGRAPFHTTFLNDLLDFKFDGYITIN”, the “soluble fraction (log2)” value is -0.0405. The figure for “HMTKKSLFNQYLDDQKRLDIVTLQKAELVDLHKLADELNIDQYNQLKKNELIFKILQSNPSE” is -0.361; for “HMTKNEFLQGLKEELEGRVTHSAIQENIRYYDDYISQEVLKGSTEEEVTESLGGPRIIARTIVDAAYD” it is -2.29.

Take “HMTKPLHELLSQREFQVFTQLAAGRSVGEIAQQLSLSSNTVSTYRARILEKTGTRNDVELALYAIRR”: the “soluble fraction (log2)” value is -0.231.

“HMTKPTLMEVEIKGAIQNPGVYTLKRNSSISKLIKMSGPLLENADTSSISFTHILQDKDVVVIPEIK”: the “soluble fraction (log2)” value was -0.177. With “HMTKQEYLNQLKNELVKQGVADAEDVVTEYEQHFAFKLADGFGEEEIAKKLGDPAAIASQFVG” the figure was -1.16; with “HMTKQMELLAQGAAKLSVDLNQRQLDQLQTYYRELVDWNQRMNLTAITQYEEVQVKHFLDSL”, -0.294; with “HMTKRKNTEFRQQQIIEAAAKLIFKYGSEHLTVKRIAAQVGISEAAIYRHFTSKKSILSFLLSHIEE”, -0.317.

For the sequence “HMTKRTVKSVARKIADFNRERHRMPTYEEMLTLLAVRSKSVVHFWMNKLLQEGILEKDESGHLTFV”, the “soluble fraction (log2)” value turned out to be 0.14. Regarding “HMTKSSAYLSAEKLINKKQYSDAIVKLNDALVTDSKNADIYNYLGFSHRKLGKMEDAAFFYNKALE”, the “soluble fraction (log2)” value is -0.165. “HMTLDDSFYQKADEIIANHTKEERSLIPIIQDIQAEYRYLPPELLTYVAKEIGITDARAYSVASFYENFS”: the “soluble fraction (log2)” value is -1.21.

In the case of “HMTLDEDYFYYTLKAKEGYYRLYKKLGVDRKIIDSLNPNLKEMGLQVGMVIRVPKSQTSDLSVKNSLLVE”, the “soluble fraction (log2)” value was -0.61.

(Values after the domain aggregation screens of Martell et al. (2025).)
